± gives the standard deviation of the averaged measurements.
B1: library; a variant is named by its letters at N, in order (parent)
chain: GCUGUCACCGGAAUACCAGCAUCGUCUUGAUGCCCUUGGAAGUCCGGUCUGAUGAGUCCNNNNNGGACGAAACAGC

Key:
[1] = variants of: B1; test: FACS-Seq fitted mean relative fluorescence mCherry/BFP without ligand (log10 relative fluorescence); higher = higher reporter protein expression; conditions: HEK293T, ligand present: no
Summary of the method: (§1)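 Lentivirally transduced HEK293T libraries carried an mCherry reporter with the ribozyme switch and an EF1α-BFP marker. Transduced cells were enriched, then incubated with or without ligand for 48 h and sorted into 6 bins by mCherry/BFP. Genomic DNA from each bin was PCR-amplified, barcoded and sequenced on MiSeq. Fluorescence was the fitted normal mean of log10(mCherry/BFP) bin counts, scaled to five spiked-in control ribozymes.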

[2] = variants of: B1; test: normalized RNA/DNA level with ligand (relative to sTRSVctl = 100) (log10 (% of sTRSVctl)); higher = less ribozyme self-cleavage, higher mRNA level; conditions: ligand concentration (+) RNA-Seq: 5 mM, HEK293T, reporter: mCherry (pCS4076), ligand present: yes
Summary of the method: (§2)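 Ribozyme switch library plasmids with mCherry reporters (eGFP in certain ligand experiments) went into HEK293T cells at 4 µg per 6-well well. Where ligand was used, it was applied 1 h before transfection, and total RNA was extracted with EDTA 72 h later for reverse transcription, amplification, barcoding and sequencing. RNA level is the RNA-to-DNA read ratio normalized to a spiked-in non-cleaving sequence or to the leading sequences, then scaled and log-transformed. Scaling was ×100 with log10, the leading set comprised 25 sequences, and the cutoff was ≥100 DNA reads.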

[3] = variants of: B1; test: normalized RNA/DNA level without ligand (relative to sTRSVctl = 100) (log10 (% of sTRSVctl)); higher = less ribozyme self-cleavage, higher mRNA level; conditions: HEK293T, reporter: mCherry (pCS4076), ligand present: no
Summary of the method: as §2

[4] = variants of: B1; test: FACS-Seq fitted mean relative fluorescence mCherry/BFP with ligand (log10 relative fluorescence); ligand concentration (+) FACS-Seq: 1 mM; higher = higher reporter protein expression; conditions: HEK293T, ligand present: yes
Summary of the method: as §1

Row | Variant | FACS-Seq fitted mean (log10) [1] | normalized RNA/DNA level with ligand (log10) [2] | normalized RNA/DNA level without ligand (log10) [3] | FACS-Seq fitted mean (log10) [4]
1 | CGUAC | 0.651 ± 0.027 | 1.92 ± 0.093 | 1.75 ± 0.062 | 0.792 ± 0.044
2 | CGUAU | 0.177 ± 0.0091 | 2 ± 0.05 | 1.54 ± 0.11 | 0.491 ± 0.0065
3 | CGUAA | 0.083 ± 0.047 | 2.04 ± 0.029 | 1.303 ± 0.0043 | 0.767 ± 0.036
4 | CGCGA | 0.995 ± 0.15 | 1.97 ± 0.12 | 1.767 ± 0.014 | 0.923 ± 0.055
5 | CGCGU | 0.348 ± 0.12 | 1.91 ± 0.11 | 1.842 ± 0.0033 | 0.441 ± 0.23
6 | UGGAU | 0.442 ± 0.064 | 2 ± 0.12 | 1.79 ± 0.056 | 0.624 ± 0.073
7 | UGGAC | 0.19 ± 0.013 | 2 ± 0.049 | 1.93 ± 0.056 | 0.236 ± 0.01
8 | AGGCU | 0.7841 ± 0.0051 | 1.96 ± 0.053 | 1.936 ± 0.007 | 0.847 ± 0.013
9 | AGGCA | 0.779 ± 0.085 | 1.99 ± 0.039 | 1.79 ± 0.057 | 0.896 ± 0.1
10 | CGACU | 0.265 ± 0.1 | 2 ± 0.031 | 1.7 ± 0.14 | 0.5286 ± 0.0038
11 | CGACA | 0.409 ± 0.006 | 2.012 ± 0.02 | 1.45 ± 0.061 | 0.769 ± 0.0091
12 | UGAUU | 0.448 ± 0.028 | 1.96 ± 0.071 | 1.7 ± 0.12 | 0.437 ± 0.11
13 | UGAUA | 0.3741 ± 0.0021 | 1.955 ± 0.0019 | 1.42 ± 0.17 | 0.789 ± 0.084
14 | UGAUG | 0.912 ± 0.0092 | 2.005 ± 0.00081 | 1.91 ± 0.14 | 0.848 ± 0.11
15 | UGAUC | 0.156 ± 0.012 | 1.88 ± 0.045 | 1.91 ± 0.099 | 0.331 ± 0.012
16 | UCUUU | 0.989 ± 0.015 | 2.019 ± 0.0067 | 1.86 ± 0.14 | 1.04 ± 0.1
17 | UCUUG | 0.933 ± 0.1 | 1.94 ± 0.18 | 1.94 ± 0.037 | 1.01 ± 0.025
18 | UCUGG | 0.976 ± 0.062 | 2.057 ± 0.0087 | 2.01 ± 0.064 | 1.012 ± 0.0062
19 | UCUGU | 0.6475 ± 0.0019 | 2.099 ± 0.014 | 2.01 ± 0.1 | 0.6442 ± 0.0018
20 | UCUGC | 0.365 ± 0.16 | 1.98 ± 0.096 | 2.02 ± 0.032 | 0.642 ± 0.034
21 | UCUGA | 0.9 ± 0.11 | 2.04 ± 0.035 | 1.89 ± 0.056 | 0.983 ± 0.1
22 | CGUUU | 0.252 ± 0.084 | 2.06 ± 0.11 | 1.53 ± 0.077 | 0.945 ± 0.041
23 | CGUUC | 0.959 ± 0.048 | 1.8643 ± 0.00065 | 1.75 ± 0.07 | 0.949 ± 0.067
24 | CGAAU | 0.071 ± 0.019 | 1.929 ± 0.0065 | 1.43 ± 0.076 | 0.306 ± 0.0069

Row | Variant | FACS-Seq fitted mean (log10) [1] | normalized RNA/DNA level with ligand (log10) [2] | normalized RNA/DNA level without ligand (log10) [3] | FACS-Seq fitted mean (log10) [4]
25 | CGAAA | 0.0755 ± 0.05 | 1.94 ± 0.023 | 1.31 ± 0.092 | 0.587 ± 0.042
26 | CGAAC | 0.992 ± 0.11 | 1.96 ± 0.076 | 1.72 ± 0.026 | 1.02 ± 0.089
27 | CGUGA | -0.0723 ± 0.18 | 1.97 ± 0.025 | 1.58 ± 0.054 | 0.221 ± 0.11
28 | CGCCU | 0.291 ± 0.031 | 2.08 ± 0.074 | 1.78 ± 0.12 | 0.38 ± 0.021
29 | CGCCC | 0.615 ± 0.021 | 2.01 ± 0.14 | 2.02 ± 0.04 | 0.725 ± 0.098
30 | UGGCU | 1.01 ± 0.063 | 2.01 ± 0.022 | 1.948 ± 0.011 | 0.992 ± 0.099
31 | UGCCA | 0.592 ± 0.11 | 1.9 ± 0.096 | 1.82 ± 0.068 | 0.481 ± 0.044
32 | UGCCU | 0.875 ± 0.16 | 2.08 ± 0.077 | 1.891 ± 0.007 | 0.867 ± 0.079
33 | UGCCC | 0.979 ± 0.077 | 2.01 ± 0.026 | 2.03 ± 0.043 | 0.875 ± 0.012
34 | UGCCG | 1.06 ± 0.058 | 2.04 ± 0.043 | 2.02 ± 0.055 | 0.883 ± 0.027
35 | AGGUA | 0.987 ± 0.032 | 1.979 ± 0.0062 | 1.66 ± 0.04 | 1.26 ± 0.14
36 | AGGUC | 0.52 ± 0.032 | 1.95 ± 0.15 | 1.872 ± 0.016 | 0.587 ± 0.049
37 | CGAGC | 0.548 ± 0.016 | 2.013 ± 0.0077 | 1.94 ± 0.042 | 0.508 ± 0.037
38 | CGAGU | 0.892 ± 0.093 | 1.992 ± 0.01 | 1.9 ± 0.02 | 0.873 ± 0.12
39 | CGAGA | 0.788 ± 0.0071 | 1.93 ± 0.022 | 1.58 ± 0.18 | 0.841 ± 0.032
40 | AGGAC | 0.549 ± 0.067 | 1.97 ± 0.089 | 1.81 ± 0.12 | 0.721 ± 0.074
41 | AGGAA | 0.0559 ± 0.0084 | 1.85 ± 0.12 | 1.17 ± 0.079 | 0.552 ± 0.029
42 | AGGAG | 0.642 ± 0.032 | 1.92 ± 0.022 | 1.73 ± 0.072 | 0.834 ± 0.045
43 | UGGGA | -0.00768 ± 0.057 | 2.02 ± 0.07 | 1.6195 ± 0.0012 | 0.178 ± 0.054
44 | ACUGC | 0.883 ± 0.038 | 2.01 ± 0.031 | 1.95 ± 0.058 | 0.793 ± 0.067
45 | ACUGU | 0.698 ± 0.1 | 2.027 ± 0.011 | 1.89 ± 0.087 | 0.626 ± 0.07
46 | ACUGG | 1 ± 0.065 | 2.05 ± 0.12 | 1.91 ± 0.091 | 0.915 ± 0.066
47 | CGAUA | 0.099 ± 0.017 | 1.946 ± 0.014 | 1.21 ± 0.36 | 0.491 ± 0.0076
48 | CGAUU | 0.31 ± 0.2 | 1.98 ± 0.13 | 1.51 ± 0.15 | 0.579 ± 0.022

Row | Variant | FACS-Seq fitted mean (log10) [1] | normalized RNA/DNA level with ligand (log10) [2] | normalized RNA/DNA level without ligand (log10) [3] | FACS-Seq fitted mean (log10) [4]
49 | CGAUC | 0.533 ± 0.1 | 1.927 ± 0.016 | 1.84 ± 0.089 | 0.495 ± 0.065
50 | UGUCU | 0.747 ± 0.19 | 2.02 ± 0.035 | 1.988 ± 0.0094 | 0.783 ± 0.043
51 | UGCGA | 0.439 ± 0.02 | 1.9 ± 0.039 | 1.58 ± 0.06 | 0.659 ± 0.03
52 | UGCGC | 0.574 ± 0.085 | 2.04 ± 0.035 | 1.96 ± 0.15 | 0.522 ± 0.1
53 | UGCGU | 0.83 ± 0.044 | 1.97 ± 0.088 | 1.923 ± 0.018 | 0.761 ± 0.07
54 | UGCUU | 0.84 ± 0.14 | 1.99 ± 0.079 | 1.95 ± 0.054 | 0.851 ± 0.037
55 | AGUCA | 0.8 ± 0.087 | 1.98 ± 0.14 | 1.73 ± 0.059 | 0.766 ± 0.027
56 | AGCGA | 0.281 ± 0.033 | 1.99 ± 0.025 | 1.68 ± 0.058 | 0.503 ± 0.017
57 | AGCGU | -0.0881 ± 0.074 | 2.01 ± 0.027 | 1.82 ± 0.055 | 0.017 ± 0.14
58 | AGCGC | 0.459 ± 0.1 | 2.058 ± 0.016 | 1.98 ± 0.047 | 0.52 ± 0.18
59 | CGGGC | 0.725 ± 0.09 | 1.94 ± 0.065 | 2.01 ± 0.0021 | 0.717 ± 0.016
60 | CGGGA | 0.508 ± 0.043 | 2.01 ± 0.033 | 1.74 ± 0.071 | 0.753 ± 0.077
61 | CGCAA | 0.17 ± 0.043 | 1.888 ± 0.006 | 1.49 ± 0.074 | 0.271 ± 0.06
62 | CGCAU | 0.678 ± 0.078 | 1.99 ± 0.018 | 1.68 ± 0.14 | 0.776 ± 0.017
63 | CGCAC | 0.436 ± 0.065 | 2.01 ± 0.17 | 1.9 ± 0.14 | 0.521 ± 0.017
64 | AGUGC | 0.289 ± 0.03 | 2.01 ± 0.0061 | 1.87 ± 0.071 | 0.297 ± 0.058
65 | AGUGA | 0.239 ± 0.055 | 2 ± 0.0061 | 1.38 ± 0.17 | 0.535 ± 0.0085
66 | AGUGG | 0.488 ± 0.2 | 1.98 ± 0.064 | 1.84 ± 0.036 | 0.504 ± 0.026
67 | AGUUA | 0.892 ± 0.082 | 1.87 ± 0.14 | 1.68 ± 0.039 | 1.035 ± 0.0042
68 | AGUUC | 0.981 ± 0.011 | 2 ± 0.034 | 1.89 ± 0.049 | 1.02 ± 0.049
69 | CGGCA | 0.507 ± 0.017 | 1.96 ± 0.046 | 1.485 ± 0.0076 | 0.7564 ± 0.0075
70 | CGGCC | 0.745 ± 0.024 | 2.06 ± 0.1 | 2.03 ± 0.1 | 0.6421 ± 0.002
71 | AGCAC | 0.712 ± 0.13 | 2.08 ± 0.088 | 1.91 ± 0.12 | 0.669 ± 0.012
